Results: patent US20160271157A1, “BETA-CATENIN” (UCL BUSINESS PLC, priority 2013, published 2016)

Experiments:
[1] = test system: β-catenin translocation to the nucleus; assay: β-catenin immunocytochemistry and nuclear co-localization analysis, PC3; assay type: cell-based; settings: PC3 cells; for Pearson coefficient of nuclear co-localization of β-catenin: Wnt 100 ng/ml vs control, p<0.001 Mann Whitney test
Description: Immunostaining was performed in two different laboratories, independently with the experimenter blind to the identity of the treatment. Either cells used in FluoroDish, post [Ca^2+]i experiments using dyes (see above) or grown in 8 well chamber glass slides (Lab Tek II, Nunc) were used. For Wnt ligand treatment, the culture medium replaced with PBS (without calcium) at 37° C. The experiments were replicated for Wnt ligand or vehicle control as described for [Ca^2+]i measurements. Briefly, Wnt ligands were added and chamber slides incubated at 37° C. for up to 20 min. Chamber wells were washed 3× with 0.5 ml PBS and cells were fixed with 0.5 ml 4% formalin for 30 min at 4° C. Cells were washed 3× with ice cold PBS and stored in 0.5 ml PBS at 4° C. for immunostaining. In some experiments PC3 cells were treated with thaspsigargin as described above.
For immunostaining cells were washed twice for 5 minutes in TBST (20 mM Tris pH 7.4, 0.9% NaCl, 0.1% Tween 20, Sigma). Cells were then incubated in 20% normal goat serum (NGS)/TBST for 30 min at room temperature, the chambers were drained and cells were incubated with mouse anti-β-catenin (ab22656, Abcam, UK) at 1:500 dilution in NGS/TBST overnight at 4° C. Following two further 5 min washes in TBST sections were incubated in goat anti-mouse peroxidase fab (Abcam, UK) at 1:500 dilution for 30 min at room temperature. Following a further two 5 min washes in TBST cells were incubated with tyramide Cy3 (Perkin Elmer) for 10 min at room temperature. Sections were washed twice for 5 min in TBST before nuclear counterstaining with DAPI. After a final two 5 min washes, the chambers were removed and cover slip placed on slides using Permafluor (Thermo Shandon).
Fluorescence immunocytochemical staining for β-catenin expression in cell lines was imaged using Olympus Fluoview 1000 Confocal Microscope (Olympus KeyMed) mounted on an Olympus IX81 inverted microscope using a 20×0.7 NA or 40×1.0 NA dry objective with a zoom of ×3.4′,6-diamidino-2-phenylindole (DAPI, nuclear counterstain) was excited at 405 nm with an emission of 415-500 nm; Cy3 (β-catenin label) signal was excited at 561 nm with an emission spectrum between 570-670 nm. […] Z-stacks of at least 3 fields per sample were imaged and saved in Olympus FV (OIF or OIB) file format.
Nuclear co-localization of β-catenin was calculated by importing FV files for untreated, control or treated cells, into colocalization plugin of Fiji software (http://fiji.sc/Fiji) for Cy3 (β-catenin) and DAPI (nuclear) signals. Pearson co-relation of colocalization were tabulated for 25-90 cells (from 2-5 different passages of cells) using ROI analysis. Statistical significance between untreated and treated cells was calculated using Mann Whitney U test.

[2] = test system: PC3 prostate cancer cell line; assay: Live [Ca2+]i imaging (Fluo4/FuraRed ratio) after addition of Wnt ligand; assay type: cell-based; settings: PC3 cells; for intracellular calcium mobilization ([Ca2+]i release) in response to Wnt ligand: 100 ng/ml Wnt ligand peptide, ratio of Fluo4/Fura Red; for rise and fall time of [Ca2+]i release: Wnt peptide 100 ng/ml; for dependence of time constants (dwell time) on Wnt ligand concentration / co-operativity: three concentrations of each Wnt ligand, first-order fit
Description: The imaging protocol was developed in the inventor's laboratory and has been described in detail, elsewhere (Wang at al., (2010) PLoS ONE 5, e10456). Briefly, 100000-200000 PC3, MCF7, 253J or Cos 7 cells were plated on 35 mm FluoroDish (WPI) and grown for 48 h; calcium indicators Fluo-4 (Invitrogen) and FuraRed (Invitrogen) at 1 ng/ml were added to FluoroDish containing only 1 ml of culture medium and incubated for 15-20 min at 37° C. The culture medium was removed and washed (×2) and replaced with 1 ml PBS. Live cell calcium Imaging was performed on an Olympus FluoView FV 1000 confocal microscope (Olympus KeyMed) equipped with a 20× dry objective (numerical aperture=0.75). Calcium indicators were excited with an argon laser line (488 nm) and emissions recorded in the green channel (500-560 nm) for Fluo-4 and red channel (600-700 nm) for FuraRed after addition of vehicle control (PBS) or Wnt X (30-600 ng/ml). Images were acquired every 1.1 or 2.2 seconds for up to 600-800s; image and data acquisition was performed using FluoView 1000 software (Olympus, UK). Fluorescent intensity was measured and data exported as a tab delimited file for further analysis using a spreadsheet. All imaging experiments were performed in duplicate; intracellular calcium at 100 ng/ml was measured in at least 3-12 different passages (passage numbers 25 to 37) of cell line for each Wnt ligand. Wnt 11 was tested in at least 5 different passages at 3 different concentrations. To test if the Wnt activated calcium release was from [Ca^2+]i stores, in some cases PC3 cells, loaded with calcium dyes, were incubated with 1-5 μM of thapsigargin (Sigma, UK), resuspended in dimethyl sulfoxide (DMSO), for 20 min at 37° C., prior to addition of Wnt ligand and live calcium imaging (as described above).
The experiments were performed using 35 mm, glass bottom, FluoroDish containing 1 ml PBS, at 37° C., to which ligands were added at desired concentration. In a static, non-superfusing assay system there is a lag time before the start of a response, in this case an increase in the intensity of the Fluo4 signal due to the release of free calcium. To measure the diffusion constant under these conditions we used Pontamine Sky Blue (Sigma Aldridge), which fluoresces in the red spectrum with 488 nm excitation, using standard practice for adding ligands; the diffusion constant was measured to be 23.3±2.1 μm·s^−1 (means±S.E.M, n=8). The calcium wave, in response to Wnt ligands, travelled across the FluoroDish.
After image acquisition, regions of interest (ROI) were drawn over individual PC3 cells (up to 25) in a single frame and calcium intensity measurements were made using FluoView 1000 software (Olympus, UK). The measurements were exported as a tab delimited file into a spreadsheet for further analysis and Fluo4/Fura Red ratios were calculated. The waveform, a product of the ratio of Fluo4 and FuraRed over the period of measurement was used to measure the kinetics of the activation of [Ca^2+]i release in PC3 cells, in response to different Wnt ligands. The time constants (rise, dwell and fall times) were calculated by first fitting the Fluo4/FuraRed ratio to a single Gaussian function (Origin Lab Corp., MA); a lower (10%) and upper (90%) amplitude thresholding method was then used to calculate the time constants (s). Statistical significance was calculated using Mann Whitney U test.

Molecule | β-catenin translocation to the nucleus after pretreatment with Ouabain (FIG. 21) ([1]; Wnt5A treated) | intracellular calcium mobilization ([Ca2+]i release) in response to Wnt ligand [2] | rise and fall time of [Ca2+]i release [2] | dependence of time constants (dwell time) on Wnt ligand concentration / co-operativity [2] | Pearson coefficient of nuclear co-localization of β-catenin [1]
C[C@@H]1O[C@@H](O[C@H]2C[C@@H](O)[C@]3(CO)[C@H]4[C@H](O)C[C@]5(C)[C@@H](C6=CC(=O)OC6)CC[C@]5(O)[C@@H]4CC[C@]3(O)C2)[C@H](O)[C@H](O)[C@H]1O [Ouabain, reference compound] | increases | – | – | – | –
Wnt4: Recombinant Wnt peptide purchased from R&D systems (protein, UniProt P56705 23-351, looked up) Protein Wnt-4: SNWLYLAKLSSVGSISEEETCEKLKGLIQRQVQMCKRNLEVMDSVRRGAQLAIEECQYQFRNRRWNCSTLDSLPVFGKVVTQGTREAAFVYAISSAGVAFAVTRACSSGELEKCGCDRTVHGVSPQGFQWSGCSDNIAYGVAFSQSFVDVRERSKGASSSRALMNLHNNEAGRKAILTHMRVECKCHGVSGSCEVKTCWRAVPPFRQVGHALKEKFDGATEVEPRRVGSSRALVPRNAQFKPHTDEDLVYLEPSPDFCEQDMRSGVLGTRGRTCNKTSKAIDGCELLCCGRGFHTAQVELAERCSCKFHWCCFVKCRQCQRLVELHTCR | – | induce intracellular calcium mobilization | slowest | negative co-operativity | significant increase
Wnt11: Recombinant Wnt peptide purchased from R&D systems (protein, UniProt O96014 25-354, looked up) Protein Wnt-11: IKWLALSKTPSALALNQTQHCKQLEGLVSAQVQLCRSNLELMHTVVHAAREVMKACRRAFADMRWNCSSIELAPNYLLDLERGTRESAFVYALSAAAISHAIARACTSGDLPGCSCGPVPGEPPGPGNRWGGCADNLSYGLLMGAKFSDAPMKVKKTGSQANKLMRLHNSEVGRQALRASLEMKCKCHGVSGSCSIRTCWKGLQELQDVAADLKTRYLSATKVVHRPMGTRKHLVPKDLDIRPVKDSELVYLQSSPDFCMKNEKVGSHGTQDRQCNKTSNGSDSCDLMCCGRGYNPYTDRVVERCHCKYHWCCYVTCRRCERTVERYVCK | – | did not mobilize [Ca^2+]i | – | – | –
Wnt7A: Recombinant Wnt peptide purchased from R&D systems (protein, UniProt O00755 32-349, looked up) Protein Wnt-7a: LGASIICNKIPGLAPRQRAICQSRPDAIIVIGEGSQMGLDECQFQFRNGRWNCSALGERTVFGKELKVGSREAAFTYAIIAAGVAHAITAACTQGNLSDCGCDKEKQGQYHRDEGWKWGGCSADIRYGIGFAKVFVDAREIKQNARTLMNLHNNEAGRKILEENMKLECKCHGVSGSCTTKTCWTTLPQFRELGYVLKDKYNEAVHVEPVRASRNKRPTFLKIKKPLSYRKPMDTDLVYIEKSPNYCEEDPVTGSVGTQGRACNKTAPQASGCDLMCCGRGYNTHQYARVWQCNCKFHWCCYVKCNTCSERTEMYTCK | – | induce intracellular calcium mobilization | – | no difference | –
Wnt3A: Recombinant Wnt peptide purchased from R&D systems (protein, UniProt P56704 19-352, looked up) Protein Wnt-3a: SYPIWWSLAVGPQYSSLGSQPILCASIPGLVPKQLRFCRNYVEIMPSVAEGIKIGIQECQHQFRGRRWNCTTVHDSLAIFGPVLDKATRESAFVHAIASAGVAFAVTRSCAEGTAAICGCSSRHQGSPGKGWKWGGCSEDIEFGGMVSREFADARENRPDARSAMNRHNNEAGRQAIASHMHLKCKCHGLSGSCEVKTCWWSQPDFRAIGDFLKDKYDSASEMVVEKHRESRGWVETLRPRYTYFKVPTERDLVYYEASPNFCEPNPETGSFGTRDRTCNVSSHGIDGCDLLCCGRGHNARAERRREKCRCVFHWCCYVSCQECTRVYDVHTCK | – | induce intracellular calcium mobilization | shortest | negative co-operativity | significant increase
